36 sequences from the supplement of paper PMC10567573 can be followed below.

The data set is described as follows: protein stability index of a GFP-peptide fusion (GPS, HEK-293T) (PSI 1-6); higher = more stable. Conditions: c terminus: a fixed tail appended.

± gives the standard deviation.
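Also: 24-mer peptide tiles fused after GFP, lentivirally expressed, FACS-sorted into six equal bins by GFP/DsRed ratio, decoded by Illumina sequencing, PSI is the read-weighted mean bin number.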

Regarding LLTVTATDRDEGANGEVTYSFRKL [PCDHGA10], the protein stability index by setting is: (treatment: DMSO) 4.1 ± 0.26; (treatment: MLN4924 1 uM, 8 h) 4.15 ± 0.33.

Turning to LMPGMPPGMPPPVPRPGIPPMTQA [ZNF207], the protein stability index reads like this: (treatment: DMSO) 4.01 ± 0.34; (treatment: MLN4924 1 uM, 8 h) 4.2 ± 0.31.

As to LNEKRTFFHLSALKGYLYAVGGRN [KLHL13], the protein stability index was found to be 2.49 ± 0.68 (treatment: DMSO) and 2.33 ± 0.46 (treatment: MLN4924 1 uM, 8 h).

On to LPDAGSGRQPALRPHVHKQTEKTT [ISL2], for which the protein stability index (treatment: DMSO) stood at 5.26 ± 0.22 and the protein stability index (treatment: MLN4924 1 uM, 8 h) came to 5.04 ± 0.23.

Turning to LPEKPVKLASHTRDTTGVSQMFPS [FBF1], the protein stability index was 3.97 ± 0.13 (treatment: DMSO) and 3.99 ± 0.47 (treatment: MLN4924 1 uM, 8 h).

For LPESLARSLLPSTEYQKQLLAAQV [FBF1], the protein stability index was found to be 2.75 ± 0.46 (treatment: DMSO) and 2.56 ± 0.26 (treatment: MLN4924 1 uM, 8 h).

LPGSYLSSECHTSGFVGSGGWFCE [KRT36] displayed a protein stability index (treatment: DMSO) of 2.15 ± 0.39 and a protein stability index (treatment: MLN4924 1 uM, 8 h) of 2.24 ± 0.26.

LPIVKLLAKQPGVSVNAQTLDGRT [RIPK4]: the protein stability index (treatment: DMSO) was found to be 2.71 ± 0.17 and the protein stability index (treatment: MLN4924 1 uM, 8 h) was 3.13 ± 0.56.

As for LPSRPPPLLSPLLASRNPCPWHYL [RSPH3], the protein stability index runs as follows: (treatment: DMSO) 2.27 ± 0.2; (treatment: MLN4924 1 uM, 8 h) 2.15 ± 0.22.

For the sequence LQDQEKAWGFPENATAPRSPSHSP [ELOA2], the protein stability index turned out to be 5.38 ± 0.26 (treatment: DMSO) and 5.4 ± 0.26 (treatment: MLN4924 1 uM, 8 h).

On to LQRASILDMRRDHEEQLQRLKLLK [FBF1], for which the protein stability index was 3.43 ± 0.48 (treatment: DMSO) and 3.72 ± 0.33 (treatment: MLN4924 1 uM, 8 h).

With LQVIYWARDVFIITGVWVFFFNPC [GOSR1], the protein stability index runs as follows: (treatment: DMSO) 2.37 ± 0.7; (treatment: MLN4924 1 uM, 8 h) 2.57 ± 0.15.

For LRAVEQAMGHSQDRLTTFQENQAR [LRRC45], the protein stability index (treatment: DMSO) was determined as 4.48 ± 0.23 and the protein stability index (treatment: MLN4924 1 uM, 8 h) stood at 4.34 ± 0.22.

Consider LRIFVWLLLLYFMQVIAIVLYLMM [PHTF1], for which the protein stability index reads like this: (treatment: DMSO) 2.99 ± 0.71; (treatment: MLN4924 1 uM, 8 h) 2.75 ± 0.55.

With LRIRSVEGRKKAFSTCGSHLTVVA [OR3A1], the protein stability index by setting is: (treatment: DMSO) 2.43 ± 0.42; (treatment: MLN4924 1 uM, 8 h) 2.2 ± 0.47.

With LRKGYLFMYNLVQFLGFSWIFVNL [HACD3], the protein stability index was 3.5 ± 0.29 (treatment: DMSO) and 3.22 ± 0.31 (treatment: MLN4924 1 uM, 8 h).

In the case of LRNNFQKQLLSNKELILDKVYTHP [ZC2HC1C], the protein stability index (treatment: DMSO) worked out at 2.76 ± 0.23 and the protein stability index (treatment: MLN4924 1 uM, 8 h) was 3.08 ± 0.25.

LRQHGPPNIVVAIAGNKCDLIDVR [RAB22A]: the protein stability index runs as follows: (treatment: DMSO) 2.46 ± 0.39; (treatment: MLN4924 1 uM, 8 h) 2.4 ± 0.52.

LRSAGVEQLMYIKEDLIIPHHHSF [FAM50A]: the protein stability index runs as follows: (treatment: DMSO) 2.38 ± 0.35; (treatment: MLN4924 1 uM, 8 h) 2.37 ± 0.25.

The sequence LRYLSSIWNILDLVVILLSIVAVG [PKD2L1] returned a protein stability index (treatment: DMSO) of 2.66 ± 0.65 and a protein stability index (treatment: MLN4924 1 uM, 8 h) of 3.3 ± 0.32.

For LSFEQMTDAHVWNKSVTLYTVKDK [NLN], the protein stability index by setting is: (treatment: DMSO) 2.61 ± 0.61; (treatment: MLN4924 1 uM, 8 h) 3.09 ± 0.63.

As for LSLGALVALCWQLGLLFERHWHRP [SCNN1D], the protein stability index stood at 3.09 ± 0.24 (treatment: DMSO) and 3.16 ± 0.19 (treatment: MLN4924 1 uM, 8 h).

LSLLVHNVSVMHKSLDNMPNDEHW [FBXO33]: the protein stability index reads like this: (treatment: DMSO) 2.36 ± 0.31; (treatment: MLN4924 1 uM, 8 h) 2.4 ± 0.14.

For LSPKIMQEAFLVQEVVELPVTERQ [TBC1D10A], the protein stability index by setting is: (treatment: DMSO) 3.98 ± 0.19; (treatment: MLN4924 1 uM, 8 h) 3.91 ± 0.39.

For the sequence LSQADFLVCTFSSQVCRVAYEIMQ [FUT8], the protein stability index runs as follows: (treatment: DMSO) 2.96 ± 0.39; (treatment: MLN4924 1 uM, 8 h) 2.93 ± 0.58.

As for LSSQCFSNISRPRDNPMCLKCDLQ [M1AP], the protein stability index runs as follows: (treatment: DMSO) 3.2 ± 0.035; (treatment: MLN4924 1 uM, 8 h) 3.27 ± 0.15.

With LTERKYKGDSTIRELKAKLSGVEE [SASS6], the protein stability index (treatment: DMSO) was 4.18 ± 0.41 and the protein stability index (treatment: MLN4924 1 uM, 8 h) came out at 4.63 ± 0.52.

Consider LTFMNEQGEYPPGTSTWQFNFKFN [CNOT7], for which the protein stability index is, setting by setting: (treatment: DMSO) 2.21 ± 0.074; (treatment: MLN4924 1 uM, 8 h) 2.39 ± 0.3.

In the case of LTPGQSDSAKREVKQKISPYFKSN [FAN1], the protein stability index by setting is: (treatment: DMSO) 3.92 ± 0.19; (treatment: MLN4924 1 uM, 8 h) 3.97 ± 0.26.

For LTRQLVSCSSDGGIAVWNMDVSRE [WDFY1], the protein stability index was determined as 2.96 ± 0.32 (treatment: DMSO) and 3.08 ± 0.2 (treatment: MLN4924 1 uM, 8 h).

The sequence LTTKGEMPVQLTSRREIRKIMGVE [ANKRD40] came in with a protein stability index (treatment: DMSO) of 3.7 ± 0.048 and a protein stability index (treatment: MLN4924 1 uM, 8 h) of 3.85 ± 0.18.

With LVFLELAQFHCAYQLADWCLHHIC [RHOBTB2], the protein stability index amounted to 3.16 ± 0.17 (treatment: DMSO) and 2.98 ± 0.43 (treatment: MLN4924 1 uM, 8 h).

On to LVGAQAPATEEQEAASSSSTLVEV [MAGEA3], for which the protein stability index is 5.43 ± 0.21 (treatment: DMSO) and 5.3 ± 0.097 (treatment: MLN4924 1 uM, 8 h).

In turn, LYGGMNYRRLGGGVGVIKMTHCES [KLHL20] yielded a protein stability index (treatment: DMSO) of 2.3 ± 0.25 and a protein stability index (treatment: MLN4924 1 uM, 8 h) of 2.85 ± 0.66.

Regarding LYRNGKDQDGDQAPEYRGRTELLK [MOG], the protein stability index was 4.59 ± 0.14 (treatment: DMSO) and 4.68 ± 0.34 (treatment: MLN4924 1 uM, 8 h).

Take MAAGFPYALRAYLGYQAVPSGSSG [CEBPB]: the protein stability index came out at 2.1 ± 0.3 (treatment: DMSO) and 2.04 ± 0.18 (treatment: MLN4924 1 uM, 8 h).
